No end group written: not given here.
Legend:
[1] = target: hemagglutinin of influenza A virus A/Mute swan/Germany/R901/06 K3141 H7N1 (influenza A virus A/Mute swan/Germany/R901/06 K3141 H7N1)
[2] = target: hemagglutinin of influenza A virus A/Mute swan/Germany/R901/06 K3141 H7N1 (influenza A virus A/Mute swan/Germany/R901/06 K3141 H7N1); experiment: cell-based or functional assay
[3] = target: hemagglutinin of influenza A virus A/Panama/2007/1999 H3N2 (influenza A virus A/Panama/2007/1999 H3N2); experiment: cell-based or functional assay

Binder: KKKKFYGYDVFF (not fully specified (C-terminus)) [peptide with SEQ ID NO:28, N-terminal (Lys)4, C-terminal amide]
- IC50 [1]: 30 µM
- Hemagglutination inhibition (IC50, HAI) [2]: 23 µM
- Mean Ki(HAI), hemagglutination inhibition assay, turkey erythrocytes [2]: 36.5 µM
- Mean Ki(HAI), hemagglutination inhibition assay, human erythrocytes [3]: 0.1 µM

Binder: KKKKFYDYDVFY (not fully specified (C-terminus)) [reference peptide with SEQ ID NO:1 (FYDYDVFY), N-terminal (Lys)4, C-terminal amide]
- IC50 [1]: 40 µM
- Hemagglutination inhibition (IC50, HAI) [2]: 47 µM
- Mean Ki(HAI), hemagglutination inhibition assay, turkey erythrocytes [2]: 62.5 µM
- Mean Ki(HAI), hemagglutination inhibition assay, human erythrocytes [3]: 16 µM
